Experimental data taken from the supplement of paper PMC10567573.

Assay: protein stability index of a GFP-peptide fusion (GPS, HEK-293T) (PSI 1-6); higher = more stable
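Note: lentivirally expressed fusions sorted by FACS into six bins by GFP to DsRed ratio, PSI derived from sequencing read proportions per bin multiplied by bin number.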

GGYFKARLKFPIDYPYSPPAFRFL [CDC34 WT]
protein stability index (parent: IOH1870_10, c terminus: a fixed tail appended): 2.41

LEEALYEYQPLQIETYGPHVPELE
protein stability index (parent: IOH3100_41, c terminus: a fixed tail appended): 2.7

RVRSLETENRRLESKIREHLEKKG
protein stability index (parent: IOH2946_17, c terminus: a fixed tail appended): 4.39

IRRAYPDANLLNDRVLRAMLKAEE
protein stability index (parent: IOH1962_3, c terminus: a fixed tail appended): 2.62

YSLTTSSTHKRSSLRKVKLVRPPQ [RAB40B WT]
protein stability index (parent: IOH1937_41, c terminus: a fixed tail appended): 2.95

FTGRDSITCLTCQGTGYIPTEQVN
protein stability index (parent: IOH3247_8, c terminus: a fixed tail appended): 1.83

RAQYDELARKNREELDKYWSQQIE
protein stability index (parent: IOH2946_43, c terminus: a fixed tail appended): 3.04

EAEEEELRAELTKVEEEIVTLRQV [TPD52L2 WT]
protein stability index (parent: IOH3163_8, c terminus: a fixed tail appended): 4.06

TCADRDNLTRRFSDLGFEVKCFND [CASP6 WT]
protein stability index (parent: IOH3453_12, c terminus: a fixed tail appended): 3.21

FVELQGFLAAEQDIREEIRKVVQS
protein stability index (parent: IOH3571_2, c terminus: a fixed tail appended): 2.08

YDPDYIQCPYCQRRFNENAADRHI [FAM164A WT]
protein stability index (parent: IOH3371_20, c terminus: a fixed tail appended): 4.12

YVTTNVSLIPPRSEQLVNFTGKAE
protein stability index (parent: IOH3247_29, c terminus: a fixed tail appended): 1.77

PQVRDWSHYFKIIEDLRAQIFANT
protein stability index (parent: IOH2946_21, c terminus: a fixed tail appended): 2.07

LAPIHKLEEALYEYQPLQIETYGP
protein stability index (parent: IOH3100_40, c terminus: a fixed tail appended): 1.96

CHICHKKLYTGPGLAIHCMQVHKE
protein stability index (parent: IOH3584_7, c terminus: a fixed tail appended): 3.29

FLAAEQDIREEIRKVVQSLEQTAR
protein stability index (parent: IOH3571_3, c terminus: a fixed tail appended): 1.8

KSQDLAKIMADIRAQYDELARKNR
protein stability index (parent: IOH2946_41, c terminus: a fixed tail appended): 2.6

DLSRLVNCLTGEGEDTRLSASEMK [CIB1 WT]
protein stability index (parent: IOH3143_22, c terminus: a fixed tail appended): 3.05

SLREYNDFLEEVEEIVFNLTNNVD
protein stability index (parent: IOH3100_16, c terminus: a fixed tail appended): 2

SEQLVNFTGKAEMGGPFSYVYFFC
protein stability index (parent: IOH3247_31, c terminus: a fixed tail appended): 2.53

FPSAGQAQAAVQGPVGTDFKPLNS
protein stability index (parent: IOH3584_46, c terminus: a fixed tail appended): 3.51

FQPQPVQPQQGYIPPMAQPGLPPV
protein stability index (parent: IOH3584_22, c terminus: a fixed tail appended): 3.18

AFVVYLETETLVTREAVTEILGIE
protein stability index (parent: IOH3571_18, c terminus: a fixed tail appended): 2.25

TVPEILVHNIVIFMRTSVKISYIG
protein stability index (parent: IOH3247_35, c terminus: a fixed tail appended): 3.44

YNIATRRKALKNPSEEYGKILEVV [MLH1 WT]
protein stability index (parent: IOH3190_27, c terminus: a fixed tail appended): 2.51

YQGGPPRPPMGMRPPVMSQGGRY
protein stability index (parent: IOH3584_75, c terminus: native): 1.94

PEAEENKQIIRKHAQTFVALCATD
protein stability index (parent: IOH1962_29, c terminus: a fixed tail appended): 2.89
